B1: VAMP4 (parent)
chain: IMALVAAILLLVIIILIVMKYRT

Variants of: B1
Assay: protein stability index of a GFP-peptide fusion (GPS, HEK-293T) (PSI 1-6); higher = more stable
Conditions: c terminus: native
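Further: lentivirally expressed fusions sorted by FACS into six bins by GFP to DsRed ratio, PSI derived from sequencing read proportions per bin multiplied by bin number.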

Variant	protein stability index
IMALVAAILLLVIIILWVMKYRT [I17W]	2.44
IMALVAAILLLVIIILYVMKYRT [I17Y]	2.21
IMALVAAILLLVIIILIAMKYRT [V18A]	2.6
IMALVAAILLLVIIILIMMKYRT [V18M]	3.39
IMALVAAILLLVIIILIGMKYRT [V18G]	2.66
IMALVAAILLLVIIILIEMKYRT [V18E]	2.91
IMALVAAILLLVIIILILMKYRT [V18L]	3.26
IMALVAAILLLVIIILIKMKYRT [V18K]	1.68
IMALVAAILLLVIIILITMKYRT [V18T]	2.87
IMALVAAILLLVIIILIDMKYRT [V18D]	2.85
IMALVAAILLLVIIILIPMKYRT [V18P]	2.72
IMALVAAILLLVIIILIIMKYRT [V18I]	3.54
IMALVAAILLLVIIILIYMKYRT [V18Y]	2.97
IMALVAAILLLVIIILIHMKYRT [V18H]	2.38
IMALVAAILLLVIIILISMKYRT [V18S]	2.56
IMALVAAILLLVIIILIFMKYRT [V18F]	3.09
IMALVAAILLLVIIILINMKYRT [V18N]	2.33
IMALVAAILLLVIIILIRMKYRT [V18R]	1.27
IMALVAAILLLVIIILICMKYRT [V18C]	2.93
IMALVAAILLLVIIILIQMKYRT [V18Q]	2.04
IMALVAAILLLVIIILIWMKYRT [V18W]	3.21
IMALVAAILLLVIIILIVPKYRT [M19P]	2.66
IMALVAAILLLVIIILIVRKYRT [M19R]	2.91
IMALVAAILLLVIIILIVGKYRT [M19G]	2.99
IMALVAAILLLVIIILIVKKYRT [M19K]	2.77

Variant	protein stability index
IMALVAAILLLVIIILIVSKYRT [M19S]	3.33
IMALVAAILLLVIIILIVTKYRT [M19T]	2.72
IMALVAAILLLVIIILIVQKYRT [M19Q]	2.51
IMALVAAILLLVIIILIVEKYRT [M19E]	3.07
IMALVAAILLLVIIILIVAKYRT [M19A]	2.88
IMALVAAILLLVIIILIVFKYRT [M19F]	3.48
IMALVAAILLLVIIILIVHKYRT [M19H]	3.08
IMALVAAILLLVIIILIVVKYRT [M19V]	3.41
IMALVAAILLLVIIILIVCKYRT [M19C]	2.78
IMALVAAILLLVIIILIVWKYRT [M19W]	3.11
IMALVAAILLLVIIILIVLKYRT [M19L]	3.68
IMALVAAILLLVIIILIVDKYRT [M19D]	3.19
IMALVAAILLLVIIILIVYKYRT [M19Y]	3.09
IMALVAAILLLVIIILIVIKYRT [M19I]	3.64
IMALVAAILLLVIIILIVNKYRT [M19N]	3.33
IMALVAAILLLVIIILIVMDYRT [K20D]	3.1
IMALVAAILLLVIIILIVMRYRT [K20R]	3.15
IMALVAAILLLVIIILIVMPYRT [K20P]	2.62
IMALVAAILLLVIIILIVMMYRT [K20M]	3.62
IMALVAAILLLVIIILIVMAYRT [K20A]	3.68
IMALVAAILLLVIIILIVMEYRT [K20E]	3.49
IMALVAAILLLVIIILIVMQYRT [K20Q]	2.82
IMALVAAILLLVIIILIVMTYRT [K20T]	3.59
IMALVAAILLLVIIILIVMSYRT [K20S]	4.02
IMALVAAILLLVIIILIVMYYRT [K20Y]	3.38

Variant	protein stability index
IMALVAAILLLVIIILIVMGYRT [K20G]	3.37
IMALVAAILLLVIIILIVMWYRT [K20W]	4.14
IMALVAAILLLVIIILIVMLYRT [K20L]	2.93
IMALVAAILLLVIIILIVMCYRT [K20C]	3.3
IMALVAAILLLVIIILIVMNYRT [K20N]	3.25
IMALVAAILLLVIIILIVMHYRT [K20H]	3.54
IMALVAAILLLVIIILIVMVYRT [K20V]	4.06
IMALVAAILLLVIIILIVMIYRT [K20I]	3.75
IMALVAAILLLVIIILIVMFYRT [K20F]	3.67
IMALVAAILLLVIIILIVMKYNT [R22N]	3.2
IMALVAAILLLVIIILIVMKYCT [R22C]	4.02
IMALVAAILLLVIIILIVMKYVT [R22V]	3.7
IMALVAAILLLVIIILIVMKYGT [R22G]	3.6
IMALVAAILLLVIIILIVMKYLT [R22L]	3.4
IMALVAAILLLVIIILIVMKYTT [R22T]	3.93
IMALVAAILLLVIIILIVMKYDT [R22D]	4.01
IMALVAAILLLVIIILIVMKYET [R22E]	3.24
IMALVAAILLLVIIILIVMKYAT [R22A]	3.96
IMALVAAILLLVIIILIVMKYWT [R22W]	4.25
IMALVAAILLLVIIILIVMKYST [R22S]	3.82
IMALVAAILLLVIIILIVMKYMT [R22M]	4.08
IMALVAAILLLVIIILIVMKYHT [R22H]	3.86
IMALVAAILLLVIIILIVMKYKT [R22K]	3.58
IMALVAAILLLVIIILIVMKYQT [R22Q]	3.39
IMALVAAILLLVIIILIVMKYYT [R22Y]	3.56

Variant	protein stability index
IMALVAAILLLVIIILIVMKYFT [R22F]	3.85
IMALVAAILLLVIIILIVMKYIT [R22I]	3.65
IMALVAAILLLVIIILIVMKYPT [R22P]	3.06
IMALVAAILLLVIIILIVMKSRT [Y21S]	3.37
IMALVAAILLLVIIILIVMKQRT [Y21Q]	2.99
IMALVAAILLLVIIILIVMKWRT [Y21W]	3.48
IMALVAAILLLVIIILIVMKCRT [Y21C]	3.21
IMALVAAILLLVIIILIVMKGRT [Y21G]	3.22
IMALVAAILLLVIIILIVMKDRT [Y21D]	2.84
IMALVAAILLLVIIILIVMKART [Y21A]	3.11
IMALVAAILLLVIIILIVMKLRT [Y21L]	3.28
IMALVAAILLLVIIILIVMKERT [Y21E]	2.71
IMALVAAILLLVIIILIVMKFRT [Y21F]	3.56
IMALVAAILLLVIIILIVMKMRT [Y21M]	3.42
IMALVAAILLLVIIILIVMKRRT [Y21R]	1.81
IMALVAAILLLVIIILIVMKTRT [Y21T]	3.13
IMALVAAILLLVIIILIVMKKRT [Y21K]	1.98
IMALVAAILLLVIIILIVMKIRT [Y21I]	3.26
IMALVAAILLLVIIILIVMKHRT [Y21H]	2.58
IMALVAAILLLVIIILIVMKVRT [Y21V]	2.96
IMALVAAILLLVIIILIVMKNRT [Y21N]	3.32
IMALVAAILLLVIIILIVMKPRT [Y21P]	2.98
